According to patent publication US20130315910A1 (Xencor, published 2013):
Changes are numbered by the printed parent chain.

Legend:
[1] = target: T1, human FcγRIIIa (158V), His- and GST-tagged (human, UniProt P08637 17-208); test: SPR
T1 construct: also called V158 FcγRIIIa; VIIIa; not shown: 6xHis and GST tags of the pTT5 vector

[2] = target: T2, human FcγRIIa (131R), His- and GST-tagged (human, UniProt P12318 34-217); test: SPR
T2 construct: Expressed in HEK293T cells, purified by nickel chromatography; also called R131 FcγRIIa; not shown: 6xHis and GST tags of the pTT5 vector
T2 sequence (looked up): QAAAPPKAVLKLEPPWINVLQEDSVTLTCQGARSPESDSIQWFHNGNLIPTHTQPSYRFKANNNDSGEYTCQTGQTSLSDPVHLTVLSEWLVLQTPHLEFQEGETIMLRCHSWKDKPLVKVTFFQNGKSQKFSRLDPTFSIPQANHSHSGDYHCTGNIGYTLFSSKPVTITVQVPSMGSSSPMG

[3] = target: T3, human FcγRIIa (131H), His- and GST-tagged (human, UniProt P12318 34-217); test: SPR
T3 construct: also called H131 FcγRIIa; HIIa; not shown: 6xHis and GST tags of the pTT5 vector
T3 sequence (looked up): T2 sequence (looked up) with R134H

[4] = target: T4, human FcγRIIb on cells (transfected HEK293T cells; primary human B cells) (human, UniProt P31994 43-310); test: flow cytometry on FcγRIIb-transfected 293T cells [middle left panel]
T4 construct: whole, on cells; also called CD32b
T4 sequence (looked up): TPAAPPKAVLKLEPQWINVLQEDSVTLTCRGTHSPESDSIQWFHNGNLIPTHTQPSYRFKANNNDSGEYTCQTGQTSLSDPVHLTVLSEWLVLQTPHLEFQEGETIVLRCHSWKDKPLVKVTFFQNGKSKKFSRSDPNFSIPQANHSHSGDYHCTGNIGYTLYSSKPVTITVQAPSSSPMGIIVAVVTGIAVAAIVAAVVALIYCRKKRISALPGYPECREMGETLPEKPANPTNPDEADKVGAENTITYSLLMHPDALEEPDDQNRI

T1 sequence (P08637 17-208 F176V): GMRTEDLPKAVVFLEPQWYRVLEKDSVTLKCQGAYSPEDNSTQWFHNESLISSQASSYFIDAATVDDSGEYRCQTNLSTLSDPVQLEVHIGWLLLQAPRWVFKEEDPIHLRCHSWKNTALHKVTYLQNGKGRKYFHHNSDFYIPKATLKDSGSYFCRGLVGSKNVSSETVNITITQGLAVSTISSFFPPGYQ

Fold vs WT IgG1 [1]: 0.381 fold
Kd [1]: 503 nM
Fold vs WT IgG1 [2]: 29.5 fold
Kd [2]: 29.1 nM
Fold vs WT IgG1 [3]: 0.753 fold
Kd [3]: 859 nM
EC50 (read off the curve) [4]: ~0.03 µg/mL
B1: anti-CD19 antibody HuAM4G7 IgG1 S267E (antibody)
heavy: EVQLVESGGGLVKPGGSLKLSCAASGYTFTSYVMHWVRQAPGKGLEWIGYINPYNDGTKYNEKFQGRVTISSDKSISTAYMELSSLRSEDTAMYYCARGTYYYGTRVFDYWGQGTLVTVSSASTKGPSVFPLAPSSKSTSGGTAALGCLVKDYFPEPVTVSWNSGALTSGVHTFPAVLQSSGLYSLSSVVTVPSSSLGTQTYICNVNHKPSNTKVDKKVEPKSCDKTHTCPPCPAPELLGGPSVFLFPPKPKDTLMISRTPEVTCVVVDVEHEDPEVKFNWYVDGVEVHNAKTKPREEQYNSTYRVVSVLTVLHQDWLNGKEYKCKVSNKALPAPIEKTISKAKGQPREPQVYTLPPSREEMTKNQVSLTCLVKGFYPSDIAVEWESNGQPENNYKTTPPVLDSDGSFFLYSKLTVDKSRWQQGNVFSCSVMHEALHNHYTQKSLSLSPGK
light: DIVMTQSPATLSLSPGERATLSCRSSKSLQNVNGNTYLYWFQQKPGQSPQLLIYRMSNLNSGVPDRFSGSGSGTEFTLTISSLEPEDFAVYYCMQHLEYPITFGAGTKLEIKRTVAAPSVFIFPPSDEQLKSGTASVVCLLNNFYPREAKVQWKVDNALQSGNSQESVTEQDSKDSTYSLSSTLTLSKADYEKHKVYACEVTHQGLSSPVTKSFNRGEC
notes: Positions in EU numbering; copies: 2 + 2
